This passage reports Ki and Km results from publication PMC8983318, “Deciphering the structure of Arabidopsis thaliana 5-enol-pyruvyl-shikimate-3-phosphate synthase: An essential step toward the discovery of novel inhibitors to supersede glyphosate” (Computational and Structural Biotechnology Journal, 2022).

The target in data set [1] is T1, 5-enol-pyruvyl-shikimate-3-phosphate synthase (AtEPSPS) (Arabidopsis thaliana, UniProt P05466).
T1 construct: gene At2g45300; residues 77-520 (starts from Lys77, preceded by Ser-Asn-Ala)
T1 sequence (P05466 77-520): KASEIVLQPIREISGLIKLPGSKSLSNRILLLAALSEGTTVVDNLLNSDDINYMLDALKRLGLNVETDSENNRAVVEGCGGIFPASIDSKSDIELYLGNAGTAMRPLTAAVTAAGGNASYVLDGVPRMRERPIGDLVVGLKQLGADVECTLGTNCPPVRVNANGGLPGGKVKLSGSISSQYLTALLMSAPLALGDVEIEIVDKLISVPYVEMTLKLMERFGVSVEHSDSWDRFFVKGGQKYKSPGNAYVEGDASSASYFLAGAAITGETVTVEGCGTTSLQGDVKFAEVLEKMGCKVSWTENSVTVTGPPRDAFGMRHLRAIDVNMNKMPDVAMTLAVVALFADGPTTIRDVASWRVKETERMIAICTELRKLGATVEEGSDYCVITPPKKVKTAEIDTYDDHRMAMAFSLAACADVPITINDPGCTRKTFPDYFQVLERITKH
Kind of data set: malachite green phosphate-release assay, Lineweaver-Burk analysis (Ki vs PEP about […]; Ki vs S3P about […]; IC50 about […]). The format is biochemical.

Substrate in data set [2]: O=C(O)C1=C[C@@H](OP(=O)(O)O)[C@@H](O)[C@H](O)C1
Kind of data set: steady-state kinetics of the purified enzyme, KM(app), malachite green assay. The format is biochemical, Arabidopsis thaliana.

Substrate in the data set “purified protein”: C=C(OP(=O)(O)O)C(=O)O
Kind of data set: purified protein. Particulars: glyphosate is competitive with respect to PEP.

`O=C(O)CNCP(=O)(O)O` [glyphosate, N-[phosphonomethyl]glycine]: the Ki in data set [1] was roughly 1000 nM.

B1: 5-enol-pyruvyl-shikimate-3-phosphate synthase (AtEPSPS) (Arabidopsis thaliana) (protein)
chain: KASEIVLQPIREISGLIKLPGSKSLSNRILLLAALSEGTTVVDNLLNSDDINYMLDALKRLGLNVETDSENNRAVVEGCGGIFPASIDSKSDIELYLGNAGTAMRPLTAAVTAAGGNASYVLDGVPRMRERPIGDLVVGLKQLGADVECTLGTNCPPVRVNANGGLPGGKVKLSGSISSQYLTALLMSAPLALGDVEIEIVDKLISVPYVEMTLKLMERFGVSVEHSDSWDRFFVKGGQKYKSPGNAYVEGDASSASYFLAGAAITGETVTVEGCGTTSLQGDVKFAEVLEKMGCKVSWTENSVTVTGPPRDAFGMRHLRAIDVNMNKMPDVAMTLAVVALFADGPTTIRDVASWRVKETERMIAICTELRKLGATVEEGSDYCVITPPKKVKTAEIDTYDDHRMAMAFSLAACADVPITINDPGCTRKTFPDYFQVLERITKH
notes: residues 77-520 (starts from Lys77, preceded by Ser-Asn-Ala)
Consider B1, for which the figures for the Km (in data set [2]; in “purified protein”) were 200 µM and 185 µM, respectively.
